In experiment [1] the target is T1, Fas ligand peptide VMMEGKMMSYCTTGQ (223-237 positions) (human).
T1 construct: Synthetic 15-mer immobilized on a PepSet pin
T1 peptide: VMMEGKMMSYCTTGQ
As to the kind of experiment: PepSet pin ELISA, hybridoma culture supernatant, HRP anti-mouse IgG. The protocol:
(§1) (9) After removal of the pins of PepSet from the plate, 50 μl of 2N H_2SO_4 was added to the wells to quench the reaction.
(§2) Thus, it has been shown that the anti-Fas ligand antibody produced by NOK1 and NOK4 hybridomas recognize the region, […]-[…] (SEQ ID NO:139), of Fas ligand, whereas the anti-Fas ligand antibody of NOK2 hybridoma recognizes the region, […]-[…] (SEQ ID NO:140), of Fas ligand.
A general note: In an ELISA, binding on a coated surface is turned into a signal by an enzyme label.

Experiment [2] addresses T2, Fas ligand peptide YPQDLVMMEGKMMSY (218-232 positions) (human).
T2 construct: Synthetic 15-mer immobilized on a PepSet pin
T2 peptide: YPQDLVMMEGKMMSY
Described as above. As for the experimental part: as §1, §2

For experiment [3], the target named is T3, Fas ligand peptide KMMSYCTTGQMWARS (228-242 positions) (human).
T3 construct: Synthetic 15-mer immobilized on a PepSet pin
T3 peptide: KMMSYCTTGQMWARS
The experiment is described as above. As for the experimental part: as §1, §2

In experiment [4] the target is T4, soluble Fas ligand molecule (human Fas ligand released into the supernatant of COS cells transfected with … (human, UniProt P48023 130-281, limits assumed)).
T4 sequence (looked up): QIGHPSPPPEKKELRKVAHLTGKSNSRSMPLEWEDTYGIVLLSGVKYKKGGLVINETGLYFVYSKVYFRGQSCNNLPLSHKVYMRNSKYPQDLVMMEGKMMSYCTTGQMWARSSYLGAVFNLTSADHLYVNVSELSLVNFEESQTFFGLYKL
Briefly: cell-based or functional assay.

B1: NOK2 antibody (mouse anti-Fas ligand monoclonal antibody of hybridoma NOK2, FERM BP-5045) (antibody, V domains shown)
VH: QVHLQQSGAELVRPGTSVKMSCKAAGYTFTNYWIGWVKQRPGHGLEWIGYLYPGGLYTNYNEKFKGKATLTADTSSSTAYMQLSSLTSEDSAIYYCARYRDYDYAMDYWGQGTSVTVSS
VL: DVVLTQTPLSLPVNIGDQASISCKSTKSLLNSDGFTYLGWCLQKPGQSPQLLIYLVSNRFSGVPDRFSGSGSGTDFTLKISRVEAEDLGVYYCFQSNYLPLTFGSGTKLEIKR
notes: Mouse IgG, purified on protein G; kappa light chain; Those are derived from the cloned PCR product and may hold leader or primer residues; also called mouse NOK2 immunoglobulin; NOK2 immunoglobulin
In the case of B1, the binding result in experiment [1], in experiment [2] and in experiment [3] was “binds” in each case.

B2: RNOK201 (humanized NOK2 antibody, RNOK2VHver11 with RNOK2VLver1) (antibody, V domains shown)
VH: QVQLVQSGAEVKKPGASVKVSCKASGYTFTNYWIGWVKQAPGQGLEWIGYLYPGGLYTNYNEKFKGKATMTADTSTNTAYMELSSLRSEDTAVYYCARYRDYDYAMDYWGQGTLVTVSS
VL: DVVMTQTPSSLSASVGDRASISCKSTKSLLNSDGFTYLGWCQQKPGQSPQLLIYLVSNRFSGVPDRFSGSGSGTDFTLKISSLQPEDIATYYCFQSNYLPLTFGQGTKVEIKR
In the case of B2, in experiment [4], the “apoptosis inhibition: viable rate of Fas-WR19L target cells with soluble Fas ligand, Alamar Blue fluorescence, 17 h” value (“apoptosis inhibition: viable rate” for short) was not below 90%.

B3: RNOK202 (humanized NOK2 antibody, RNOK2VHver11 with RNOK2VLver21) (antibody, V domains shown)
VH: QVQLVQSGAEVKKPGASVKVSCKASGYTFTNYWIGWVKQAPGQGLEWIGYLYPGGLYTNYNEKFKGKATMTADTSTNTAYMELSSLRSEDTAVYYCARYRDYDYAMDYWGQGTLVTVSS
VL: DVVMTQTPLSLPVTPGEPASISCKSTKSLLNSDGFTYLGWCLQKPGQSPQLLIYLVSNRFSGVPDRFSGSGSGTDFTLKISRVEAEDVGVYYCFQSNYLPLTFGQGTKLEIKR
For B3, the “apoptosis inhibition: viable rate” value in experiment [4] was not below 90%.

B4: RNOK203 (humanized NOK2 antibody, RNOK2VHver11 with RNOK2VLver22) (antibody, V domains shown)
VH: QVQLVQSGAEVKKPGASVKVSCKASGYTFTNYWIGWVKQAPGQGLEWIGYLYPGGLYTNYNEKFKGKATMTADTSTNTAYMELSSLRSEDTAVYYCARYRDYDYAMDYWGQGTLVTVSS
VL: DVVMTQTPLSLPVTLGQPASISCKSTKSLLNSDGFTYLGWCLQKPGQSPQLLIYLVSNRFSGVPDRFSGSGSGTDFTLKISRVEAEDVGVYYCFQSNYLPLTFGQGTKLEIKR
Take B4: the “apoptosis inhibition: viable rate” value in experiment [4] is not below 90%.
